Data: patent US11149086B2, “KV1.3 binding immunoglobulins” (Ablynx N.V., priority 2014, dated 2021)

Assays:
human Kv1.3 = target: T1, human Kv1.3 (Homo sapiens, UniProt P22001); experiment: IonWorks Quattro automated perforated patch clamp, Kv1.3-expressing CHL cells; assay type: cell-based; conditions: 6 to 7 min incubation
T1 construct: cell lines stably expressing the full length human Kv1.3 channel
Excerpt: Selected Nanobodies were electrophysiologically characterized on human Kv1.3 on the IonWorks automated perforated-Patch Clamp using Kv1.3-expressing Chinese Hamster Lung (CHL) cells. The procedure for evaluating the modulatory effect of the purified Nanobodies on human Kv1.3 via electrophysiological recordings is given below.
IonWorks Quattro (Molecular Devices) is a second-generation screening instrument that provides membrane voltage control and provides a direct electrophysiological assay for screening and characterization of compounds. It is an automated, high-throughput planar perforated patch clamp that uses a 384-well PatchPlate™ substrate.
Extracellular solution contained (in mM): 138 NaCl, 2.7 KCl, 0.9 CaCl2, 0.5 MgCl2, 8 Na2HPO4, and 1.5 KH2PO4 (pH 7.3 with NaOH, and 285-290 mOsmolar). The intracellular solution contained (in mM): 100 K-gluconate, 40 KCl, 3.2 EGTA, 5 HEPES and 3.2 MgCl2 (pH 7.3 with KOH, and 300-315 mOsmolar). These solutions were freshly made, stocked for no longer than a month at 4° C. and filtered prior to use. The selected Nanobodies were directly diluted in extracellular solution to obtain a 3 μM sample solution. […]
The basic principles of IonWorks automated patch clamp electrophysiology are described by Schroeder et al. (J Biomol Screen 8(1):50-64, 2003). […] In PPC mode, an ensemble average of the current from up to 64 cells per well was recorded. […]

cyno Kv1.3 = experiment: 125I-margatoxin competition on cyno Kv1.3 expressing CHO cells; assay type: binding, cynomolgus; conditions: 150 pM I125 margatoxin
Sequence of cyno Kv1.3 (as listed by the source): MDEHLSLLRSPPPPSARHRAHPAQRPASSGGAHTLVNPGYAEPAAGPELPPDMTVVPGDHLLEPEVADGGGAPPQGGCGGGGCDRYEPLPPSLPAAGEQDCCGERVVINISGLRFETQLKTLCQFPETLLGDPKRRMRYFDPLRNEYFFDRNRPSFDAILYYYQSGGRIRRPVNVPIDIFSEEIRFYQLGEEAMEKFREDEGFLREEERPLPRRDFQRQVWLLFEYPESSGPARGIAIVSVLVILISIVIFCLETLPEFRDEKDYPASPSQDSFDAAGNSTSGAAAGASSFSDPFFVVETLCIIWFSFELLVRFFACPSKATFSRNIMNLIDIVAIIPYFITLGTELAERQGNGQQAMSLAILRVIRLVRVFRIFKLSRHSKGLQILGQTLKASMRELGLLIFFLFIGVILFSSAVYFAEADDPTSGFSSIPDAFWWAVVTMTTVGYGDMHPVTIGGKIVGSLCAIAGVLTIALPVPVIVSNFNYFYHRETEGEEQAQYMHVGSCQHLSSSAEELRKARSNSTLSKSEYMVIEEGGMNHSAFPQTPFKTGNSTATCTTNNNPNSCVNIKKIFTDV
Description: Periplasmic extracts were screened in a radioligand 125I-margatoxin competition assay to assess the blocking capacity of the expressed Nanobodies. Cynomolgous Kv1.3 was presented on CHO cells overexpressing Kv1.3.
In order to detect binding of margatoxin to cell expressed Kv1.3, a radiolabeled toxin was used (125I-margatoxin; MgTX; Perkin Elmer, NEX083). To setup the assay, first a titration series of the radiolabeled 125I-margatoxin was performed on the CHO-cyKv1.3 and parental CHO K1 cells. To have maximum sensitivity of the screening, the EC30 concentration (150 pM) was chosen for competition during screening and later on, also characterization.
In brief, 35 μl of periplasmic extract was added to 150 pM labeled margatoxin (50 μl) and 40000 CHO-cyKv1.3 cells that were seeded the day before in a poly-D-lysine coated 96-well plate (BD Biocoat, Cat354620) in a total of 200 μl. After two hours incubation at RT, cells were washed two times before read out was performed with 100 μl/well MicroScint-20 (Perkin Elmer) on a TopCount device (Perkin Elmer).
As reference compounds, a dilution series of ShK-1aJ (Smartox, #08SHK001) and unlabeled margatoxin (Alamone labs, Cat RTM-325) were included. […] For each sample the percentage block was determined using the control samples to determine the assay window. […]

T1 sequence (P22001 whole entry): as the sequence (as listed by the source) above, with H4R, A23P, P38H, P47R, P269T, D275E, A284S, A285R, A497S counted along it

B1: A019400003: monovalent anti-Kv1.3 Nanobody, family 1 (protein)
VHH: EVQLVESGGGLVQAGGSLSLSCTASGGTFRNFGMGWFRQAQGKEREFVAAISRTGGHTYYQDSVKGRFTISKDNAKNILSLQMNSLKPEDTAVYYCAARFRFGDGTYYYQRAFYDFWGQGTQVTVSS
modifications: Nanobody sequence
Human Kv1.3
  effect on Kv1.3 current traces on IonWorks, in words: biphasic modulatory effect
Cyno Kv1.3
  block of I125 margatoxin binding, in words: completely block
